Measured values published in patent US20140298547.

What was measured:
Experiment in all cases: cell_activity
[1] = tested on: ZFP SBS15590 (monomer of eZFN1 and eZFN8) (synthetic construct); settings: in planta cut plus chimeric
[2] = tested on: ZFP SBS18473 (monomer of eZFN8) (synthetic construct); settings: as eZFN8 pair with SBS15590; in planta cut plus chimeric, 489/697 plants
[3] = tested on: ZFP SBS8196 (monomer of eZFN1) (synthetic construct); settings: as eZFN1 pair with SBS15590; in planta cut plus chimeric, 524/1125 plants

Sequence: ATTTTACAATCCTGTCCCTAGTGAGATGGGCGGGAGTCTTCAATCCTGTCCCTAGTGGATAAACTGCAAAAGGCGGATCA (double strand) [ELP locus eZFN1/eZFN8 binding region]
- activity ([1]; as eZFN1 pair with SBS8196, 524/1125 plants): 46.6%
- activity ([1]; as eZFN8 pair with SBS18473, 489/697 plants): 70.2%
- activity [2]: 70.2%
- activity [3]: 46.6%
